{
  "source": "the supplement of paper PMC10567573",
  "parents": {"B1": {"name": "TRAF3IP2 (parent)", "chain": "PRPPSNPPARGTLKTSNLPEELRK"}},
  "data": [
    {"variants_of": "B1", "experiment": "protein stability index of a GFP-peptide fusion (GPS, HEK-293T) (PSI 1-6); higher = more stable", "conditions": "c terminus: a fixed tail appended", "values": [
      {"variant": "PRPPSNTPARGTLKTSNLPEELRK", "note": "[P7T]", "protein stability index": 4.76},
      {"variant": "PRPPSNLPARGTLKTSNLPEELRK", "note": "[P7L]", "protein stability index": 4.83},
      {"variant": "PRPPSNGPARGTLKTSNLPEELRK", "note": "[P7G]", "protein stability index": 4.58},
      {"variant": "PRPPSNYPARGTLKTSNLPEELRK", "note": "[P7Y]", "protein stability index": 4.05},
      {"variant": "PRPPSNRPARGTLKTSNLPEELRK", "note": "[P7R]", "protein stability index": 4.75},
      {"variant": "PRPPSNVPARGTLKTSNLPEELRK", "note": "[P7V]", "protein stability index": 4.11},
      {"variant": "PRPPSNSPARGTLKTSNLPEELRK", "note": "[P7S]", "protein stability index": 4.89},
      {"variant": "PRPPSNAPARGTLKTSNLPEELRK", "note": "[P7A]", "protein stability index": 4.8},
      {"variant": "PRPPSNIPARGTLKTSNLPEELRK", "note": "[P7I]", "protein stability index": 4.5},
      {"variant": "PRPPSNHPARGTLKTSNLPEELRK", "note": "[P7H]", "protein stability index": 4.27},
      {"variant": "PRPPSNMPARGTLKTSNLPEELRK", "note": "[P7M]", "protein stability index": 4.09},
      {"variant": "PRPPSNFPARGTLKTSNLPEELRK", "note": "[P7F]", "protein stability index": 4.21},
      {"variant": "PRPPSNQPARGTLKTSNLPEELRK", "note": "[P7Q]", "protein stability index": 4.56},
      {"variant": "PRPPSNKPARGTLKTSNLPEELRK", "note": "[P7K]", "protein stability index": 4.53},
      {"variant": "PRPPSNDPARGTLKTSNLPEELRK", "note": "[P7D]", "protein stability index": 4.97},
      {"variant": "PRPPSNCPARGTLKTSNLPEELRK", "note": "[P7C]", "protein stability index": 4.4},
      {"variant": "PRPPSNEPARGTLKTSNLPEELRK", "note": "[P7E]", "protein stability index": 4.81},
      {"variant": "PRPPSNNPARGTLKTSNLPEELRK", "note": "[P7N]", "protein stability index": 5.17},
      {"variant": "PRPPSNWPARGTLKTSNLPEELRK", "note": "[P7W]", "protein stability index": 4.02},
      {"variant": "PRPPSNPPAVGTLKTSNLPEELRK", "note": "[R10V]", "protein stability index": 5.64},
      {"variant": "PRPPSNPPACGTLKTSNLPEELRK", "note": "[R10C]", "protein stability index": 4.58},
      {"variant": "PRPPSNPPAYGTLKTSNLPEELRK", "note": "[R10Y]", "protein stability index": 4.89},
      {"variant": "PRPPSNPPALGTLKTSNLPEELRK", "note": "[R10L]", "protein stability index": 4.96},
      {"variant": "PRPPSNPPAEGTLKTSNLPEELRK", "note": "[R10E]", "protein stability index": 4.47},
      {"variant": "PRPPSNPPAMGTLKTSNLPEELRK", "note": "[R10M]", "protein stability index": 4.64},
      {"variant": "PRPPSNPPAGGTLKTSNLPEELRK", "note": "[R10G]", "protein stability index": 4.27},
      {"variant": "PRPPSNPPAFGTLKTSNLPEELRK", "note": "[R10F]", "protein stability index": 4.49},
      {"variant": "PRPPSNPPAWGTLKTSNLPEELRK", "note": "[R10W]", "protein stability index": 4.76},
      {"variant": "PRPPSNPPARSTLKTSNLPEELRK", "note": "[G11S]", "protein stability index": 4.54},
      {"variant": "PRPPSNPPARETLKTSNLPEELRK", "note": "[G11E]", "protein stability index": 4.96},
      {"variant": "PRPPSNPPARLTLKTSNLPEELRK", "note": "[G11L]", "protein stability index": 3.88},
      {"variant": "PRPPSNPPARATLKTSNLPEELRK", "note": "[G11A]", "protein stability index": 4.73},
      {"variant": "PRPPSNPPARFTLKTSNLPEELRK", "note": "[G11F]", "protein stability index": 3.69},
      {"variant": "PRPPSNPPARWTLKTSNLPEELRK", "note": "[G11W]", "protein stability index": 3.54},
      {"variant": "PRPPSNPPARVTLKTSNLPEELRK", "note": "[G11V]", "protein stability index": 4.37},
      {"variant": "PRPPSNPPARPTLKTSNLPEELRK", "note": "[G11P]", "protein stability index": 4.42},
      {"variant": "PRPPSNPPARYTLKTSNLPEELRK", "note": "[G11Y]", "protein stability index": 4.28},
      {"variant": "PRPPSNPPARDTLKTSNLPEELRK", "note": "[G11D]", "protein stability index": 4.86},
      {"variant": "PRPPSNPPARRTLKTSNLPEELRK", "note": "[G11R]", "protein stability index": 3.85},
      {"variant": "PRPPSNPPARCTLKTSNLPEELRK", "note": "[G11C]", "protein stability index": 4.25},
      {"variant": "PRPPNNPPARGTLKTSNLPEELRK", "note": "[S5N]", "protein stability index": 4.63},
      {"variant": "PRPPQNPPARGTLKTSNLPEELRK", "note": "[S5Q]", "protein stability index": 4.45},
      {"variant": "PRPPDNPPARGTLKTSNLPEELRK", "note": "[S5D]", "protein stability index": 3.83},
      {"variant": "PRPPCNPPARGTLKTSNLPEELRK", "note": "[S5C]", "protein stability index": 4.28},
      {"variant": "PRPPFNPPARGTLKTSNLPEELRK", "note": "[S5F]", "protein stability index": 4.45},
      {"variant": "PRPPLNPPARGTLKTSNLPEELRK", "note": "[S5L]", "protein stability index": 4.19},
      {"variant": "PRPPHNPPARGTLKTSNLPEELRK", "note": "[S5H]", "protein stability index": 4.38},
      {"variant": "PRPPYNPPARGTLKTSNLPEELRK", "note": "[S5Y]", "protein stability index": 3.84},
      {"variant": "PRPPGNPPARGTLKTSNLPEELRK", "note": "[S5G]", "protein stability index": 4.89},
      {"variant": "PRPPRNPPARGTLKTSNLPEELRK", "note": "[S5R]", "protein stability index": 4.36},
      {"variant": "PRPPANPPARGTLKTSNLPEELRK", "note": "[S5A]", "protein stability index": 4.32},
      {"variant": "PRPPWNPPARGTLKTSNLPEELRK", "note": "[S5W]", "protein stability index": 3.98},
      {"variant": "PRPPKNPPARGTLKTSNLPEELRK", "note": "[S5K]", "protein stability index": 4.21},
      {"variant": "PRPPVNPPARGTLKTSNLPEELRK", "note": "[S5V]", "protein stability index": 4.76},
      {"variant": "PRPPMNPPARGTLKTSNLPEELRK", "note": "[S5M]", "protein stability index": 5},
      {"variant": "PRPPENPPARGTLKTSNLPEELRK", "note": "[S5E]", "protein stability index": 4.55},
      {"variant": "PRPPTNPPARGTLKTSNLPEELRK", "note": "[S5T]", "protein stability index": 4.56},
      {"variant": "PRPPINPPARGTLKTSNLPEELRK", "note": "[S5I]", "protein stability index": 4.75},
      {"variant": "PRPPSNPPARGTWKTSNLPEELRK", "note": "[L13W]", "protein stability index": 4.44},
      {"variant": "PRPPSNPPARGTVKTSNLPEELRK", "note": "[L13V]", "protein stability index": 5.32},
      {"variant": "PRPPSNPPARGTCKTSNLPEELRK", "note": "[L13C]", "protein stability index": 3.92},
      {"variant": "PRPPSNPPARGTRKTSNLPEELRK", "note": "[L13R]", "protein stability index": 4.6},
      {"variant": "PRPPSNPPARGTEKTSNLPEELRK", "note": "[L13E]", "protein stability index": 5.04},
      {"variant": "PRPPSNPPARGTIKTSNLPEELRK", "note": "[L13I]", "protein stability index": 4.6},
      {"variant": "PRPPSNPPARGTGKTSNLPEELRK", "note": "[L13G]", "protein stability index": 4.67},
      {"variant": "PRPPSNPPARGTKKTSNLPEELRK", "note": "[L13K]", "protein stability index": 4.79},
      {"variant": "PRPPSNPPARGTTKTSNLPEELRK", "note": "[L13T]", "protein stability index": 4.82},
      {"variant": "PRPPSNPPARGTHKTSNLPEELRK", "note": "[L13H]", "protein stability index": 4.36},
      {"variant": "PRPPSNPPARGTNKTSNLPEELRK", "note": "[L13N]", "protein stability index": 5.15},
      {"variant": "PRPPSNPPARGTFKTSNLPEELRK", "note": "[L13F]", "protein stability index": 4.37},
      {"variant": "PRPPSNPPARGTYKTSNLPEELRK", "note": "[L13Y]", "protein stability index": 4.25},
      {"variant": "PRPPSNPPARGTQKTSNLPEELRK", "note": "[L13Q]", "protein stability index": 4.8},
      {"variant": "PRPPSNPPARGTAKTSNLPEELRK", "note": "[L13A]", "protein stability index": 4.52},
      {"variant": "PRPPSNPPARGTSKTSNLPEELRK", "note": "[L13S]", "protein stability index": 4.94},
      {"variant": "PRPPSNPPARGTMKTSNLPEELRK", "note": "[L13M]", "protein stability index": 5.06},
      {"variant": "PRPPSNPPARGTDKTSNLPEELRK", "note": "[L13D]", "protein stability index": 5.09},
      {"variant": "PRPPSNPPARGTLVTSNLPEELRK", "note": "[K14V]", "protein stability index": 5.17},
      {"variant": "PRPPSNPPARGTLRTSNLPEELRK", "note": "[K14R]", "protein stability index": 4.65},
      {"variant": "PRPPSNPPARGTLDTSNLPEELRK", "note": "[K14D]", "protein stability index": 5.37},
      {"variant": "PRPPSNPPARGTLLTSNLPEELRK", "note": "[K14L]", "protein stability index": 5.17},
      {"variant": "PRPPSNPPARGTLITSNLPEELRK", "note": "[K14I]", "protein stability index": 4.82},
      {"variant": "PRPPSNPPARGTLMTSNLPEELRK", "note": "[K14M]", "protein stability index": 4.94},
      {"variant": "PRPPSNPPARGTLCTSNLPEELRK", "note": "[K14C]", "protein stability index": 4.76},
      {"variant": "PRPPSNPPARGTLETSNLPEELRK", "note": "[K14E]", "protein stability index": 5.27},
      {"variant": "PRPPSNPPARGTLYTSNLPEELRK", "note": "[K14Y]", "protein stability index": 4.77},
      {"variant": "PRPPSNPPARGTLATSNLPEELRK", "note": "[K14A]", "protein stability index": 5.35},
      {"variant": "PRPPSNPPARGTLNTSNLPEELRK", "note": "[K14N]", "protein stability index": 4.97},
      {"variant": "PRPPSNPPARGTLPTSNLPEELRK", "note": "[K14P]", "protein stability index": 4.83},
      {"variant": "PRPPSNPPARGTLFTSNLPEELRK", "note": "[K14F]", "protein stability index": 4.84},
      {"variant": "PRPPSNPPARGTLWTSNLPEELRK", "note": "[K14W]", "protein stability index": 4.58},
      {"variant": "PRPPSNPPARGTLQTSNLPEELRK", "note": "[K14Q]", "protein stability index": 5.21},
      {"variant": "PRPPSNPPARGTLGTSNLPEELRK", "note": "[K14G]", "protein stability index": 4.68},
      {"variant": "PRPPSNPPARGTLSTSNLPEELRK", "note": "[K14S]", "protein stability index": 5.4},
      {"variant": "PRPPSNPPARGTLHTSNLPEELRK", "note": "[K14H]", "protein stability index": 5.22}
    ]}
  ]
}
